From patent US10745461B2, “Pulsed introduction of low-dose RANKL as a therapy for diet-induced atherosclerosis” (Saint Louis University, priority 2015, dated 2020)
Entries after “also recorded” stand apart in the source; their conditions may differ.

B1: IL-17A: recombinant murine IL-17A, pro-inflammatory cytokine (protein, UniProt Q62386 26-158, looked up)
Interleukin-17A: AAIIPQSSACPNTEAKDFLQNVKVNLKVFNSLGAKVSSRRPSDYLNRSTSPWTLHRNEDPDRYPSVIWEAQCRHQRCVNAEGKLDHHMNSVLIQQEILVLKREPESCPFTFRVEKMLVGVGCTCVASIVRQAA

How the values were obtained:
[1] = tested on: FoxP3 induction in OT-I CD8 T-cells by osteoclasts; test: TcREG (FoxP3) induction in OT-I CD8 T-cells co-cultured with bone marrow-derived osteoclasts; type: cell-based, mice; conditions: in culture, IL-17 10 ng/ml, increasing TNFα, DAPT 10 μM, Fc proteins added to T-cells prior to co-culture
Protocol: It was also determined that IL-17 and TNFα suppresses TcREG induction by osteoclasts. […] Another possibility is that loss of estrogen leads to increased production of the pro-inflammatory cytokines by T-cells that increase osteoclast activity. Without being limited to any method of operation, it is actually expected that in the presence of pro-inflammatory cytokines osteoclasts fail to induce TcREG. As estrogen depletion lead to greater number of osteoclasts because of a decreased Fas ligand expression, the loss of TcREG induction and increased osteoclast numbers would tip the balance towards increased osteoclast resorption and net bone loss. To test fir this possibility, OC-iTcREG induction was measured in the presence of IL-17 and TNFα. […] To understand the underlying mechanism of how TNFα affects osteoclasts' ability to induce TcREG, the signals provided by osteoclasts to induce FoxP3 in the CD8 T-cells were investigated along with if these signals were affected by […].
(§1) The most common and well-studied costimulatory signals on antigen-presenting cells are CD80 (B7.1) and CD86 (B7.2). As CD80/CD86 double knockout mice are commercially available, osteoclasts were generated from bone marrow precursors of these mice. The CD80/CD86 null osteoclasts (as well as wild-type controls) were then used to prime OT-I T-cells in the presence and absence of antigen. […] OT-I CD8 T-cells activated by CD80/CD86 null osteoclasts produced IL-6, IL-2 and IFN-γ to levels indistinguishable from wild-type mice (FIG. 4B). Having ruled out CD80/CD86 as the costimulatory molecules, an osteoclast microarray dataset was queried for other costimulatory molecules expressed by osteoclasts. Osteoclasts that express CD200 and c-Mer were found. The role of CD200 was chosen for testing based on the phenotype of CD200^−/− mice and the reported role for CD200 in regulating TcREG.
The most, well characterized regulator of FoxP3 in T-cells is TGFβ. It has been previously shown that neutralization or addition of TGFβ has no effect on the induction of TcREG. Therefore identification of other pathways that can regulate the FoxP3 promoter in T-cells was sought. A number of previous studies have identified that the Notch signaling contributes to FoxP3 induction. To test if Notch signaling is important for TcREG induction by osteoclasts, the γ-Secretase inhibitor DAPT was initially used. Ligation of the Notch receptor by its ligand leads to cleavage of Notch by γ-secretase. […] Next, we identified the Notch ligands expressed in osteoclasts using reverse-transcription followed by PCR. […] Of the four, the osteoclast-precursors (bone marrow cells treated with M-CSF but not RANKL) express all of the ligands except DLL4 (FIG. 5C). To assess the role of DLL4 in TcREG (soluble) DLL4-Fc was added to OT-I CD8 T-cells prior to co-culturing with osteoclasts. […] To assess the role of DLL4 in vivo the induction experiments as described in FIG. 1 were performed: GFP negative (polyclonal) CD8 T-cells were purified by cell sorting and transferred into OT-II Rag^−/− mice. Two hours prior to RANKL treatment, DLL4-Fc or a control IgG1-Fc, were injected intravenously into the recipient mice, As described for FIG. 1, RANKL (0.125 mg/kg) was then administered on two consecutive days.
DLL-4 expression is repressed in the presence of […] and IL-17 but can be de-repressed by RANKL. […]

[2] = tested on: DLL4; test: DLL4 expression in mature osteoclasts by qRT-PCR; type: cell-based, mouse; conditions: overnight in 20 ng/ml TNFα or 10 ng/ml IL-17
From the text: DLL-4 expression is repressed in the presence of […] and IL-17 but can be de-repressed by RANKL. Having identified that DLL4 was required for osteoclasts to induce Foxp3 expression in CD8+ T cells we next tested if DLL-4 expression was affected by pro-inflammatory cytokines. […] As RANKL induced DLL4 in osteoclast precursors, it was hypothesized that adding additional RANKL may overcome the repression of DLL4 by TNFα. To assess the reversibility of DLL4 expression, mature osteoclasts were cultured overnight in 50 ng/ml RANKL and 20 ng/ml […], and then additional RANKL was added to the culture media (while maintaining 20 ng/ml TNFα) as shown in FIG. 5E. Indeed, addition of RANKL overcomes (within 24 hours) the repression of DLL4 by TNFα as assessed by qRT-PCR. […] The experiment was performed as above, but in this case FoxP3 induction in OT-I CD8 T-cells in the presence of OVA and either 10 ng/ml or 20 ng/ml TNFα was measured.
(§2) Osteoclasts seeded on day 4 at 1.5×10^6 cells/ml were used in all experiments. RNA was isolated at time point described in Figure legends. 10 to 50 ng of RNA was used for first-strand cDNA synthesis in 50 μL reaction per kit instructions (Superscript III cDNA synthesis system; Invitrogen). In all cases 10% of the cDNA product was used in a 50 μL PCR reaction that contained 10 μM each forward and reverse primers. For quantitative PCR (qPCR) SYBR green system (Invitrogen) was used. Otherwise, cDNA was amplified (25 cycles) and the products resolved on 1.2% agarose gel and visualized by ethidium bromide staining.

[3] = tested on: CD200; test: CD200 expression in mature osteoclasts by qRT-PCR; type: cell-based, mouse; conditions: TNFα 20 ng/ml or IL-17A 10 ng/ml
From the text: as §1, §2

Molecule	effect of added agent on TcREG/FoxP3 induction by osteoclasts [1]	DLL4 transcripts in mature osteoclasts after cytokine [2]	CD200 mRNA expression in mature osteoclasts [3]	effect of added agent on TcREG/FoxP3 induction by osteoclasts ([1]; listed as IL-17)	DLL4 transcripts in mature osteoclasts after cytokine ([2]; listed as IL-17)	CD200 mRNA expression in mature osteoclasts ([3]; listed as IL-17)
C[C@H](NC(=O)Cc1cc(F)cc(F)c1)C(=O)N[C@H](C(=O)OC(C)(C)C)c1ccccc1 [DAPT, reference compound]	completely inhibited TcREG induction; also recorded: completely abrogated FoxP3 induction	–	–	–	–	–
TNFα [reference compound]	reduced TcREG induction in a dose dependent manner; also recorded: greatly impaired	DLL4 expression was repressed; also recorded: significantly reduced	had no effect on CD200 expression; also recorded: not altered	–	–	–
B1	significantly reduced	DLL4 expression was repressed	had no effect on CD200 expression	greatly impaired	significantly reduced	not altered
